Data from patent publication US9114144B2, “Kallikrein-inhibitor therapies” (Dyax Corp., priority 2002, dated 2015).
Positions of bridges follow the written chain, without caps; N, C: chain ends. No end group written: not given here.

What was measured:
human plasma kallikrein = human plasma kallikrein (Homo sapiens, UniProt P03952); assay: Kallikrein inhibition assay, Ki,app; type: biochemical; conditions: fold higher than aprotinin
Description: The potency assay of KI polypeptides, such as PEP-1, described herein was a kinetic test, which measured fluorescence generation following the kallikrein-mediated cleavage of a substrate, […] amino methyl coumarin. A known amount of kallikrein was incubated with buffer, with a serially diluted KI polypeptide reference standard, or serially diluted KI polypeptide test samples. Each sample was run in triplicate. The substrate solution was added, and the plate read immediately using an excitation wavelength of 360 nm and an emission wavelength of 460 nm. At least two each of the reference standard and sample curves were required to have an R-squared value of ≧0.95 to be considered valid.

kallikrein = assay: Kallikrein inhibitory activity in plasma and CSF of non-ischemic mice after iv treatment; type: in vivo
Description: […] analysis was performed to determine whether DX-88 was able to cross the blood-brain barrier. Non-ischemic mice were treated iv with saline or DX-88 (10 μg/mouse or 30 μg/mouse) and plasma was drawn 30 or 60 min after administration. Thirty minutes after DX-88 treatment, plasma kallikrein inhibitory activity was 2 and 4 times higher in mice treated with […], respectively.
The same dose of DX-88 was given at the beginning of ischemic period. Twenty four hours after ischemia, neurological deficits and infarct size were evaluated.

Chain of human plasma kallikrein (P03952 20-390 partner limits assumed): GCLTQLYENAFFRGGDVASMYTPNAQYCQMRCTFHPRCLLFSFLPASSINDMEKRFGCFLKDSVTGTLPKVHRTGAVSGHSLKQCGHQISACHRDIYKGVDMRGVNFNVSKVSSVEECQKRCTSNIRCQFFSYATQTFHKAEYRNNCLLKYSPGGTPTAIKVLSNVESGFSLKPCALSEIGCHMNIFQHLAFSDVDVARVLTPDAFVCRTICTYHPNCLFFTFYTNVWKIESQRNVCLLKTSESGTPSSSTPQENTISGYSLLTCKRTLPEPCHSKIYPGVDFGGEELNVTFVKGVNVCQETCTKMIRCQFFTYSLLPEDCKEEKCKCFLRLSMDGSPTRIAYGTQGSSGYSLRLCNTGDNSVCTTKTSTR
Chain of human plasma kallikrein (P03952 391-638 limits assumed): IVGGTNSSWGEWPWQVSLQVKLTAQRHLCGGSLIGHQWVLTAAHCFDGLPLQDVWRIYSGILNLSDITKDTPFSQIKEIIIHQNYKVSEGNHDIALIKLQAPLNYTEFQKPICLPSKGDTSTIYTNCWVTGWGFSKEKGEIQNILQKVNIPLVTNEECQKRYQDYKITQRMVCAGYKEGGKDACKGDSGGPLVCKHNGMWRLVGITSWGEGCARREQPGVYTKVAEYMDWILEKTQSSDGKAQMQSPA

Question: Which “affinity (Ki) for kallikrein relative to aprotinin” value (human plasma kallikrein) does the source give for “EAMHSFCAFKADDGPCRAAHPRWFFNIFTRQCEEFIYGGCEGNQNRFESLEECKKMCTRD (disulfide 7-57, 16-40, 32-53) [PEP-1]” here?
Answer: 1000 times

Question: What about the “affinity (Ki) for kallikrein relative to aprotinin” value (human plasma kallikrein; listed as DX-88) of the same sequence?
Answer: at least 1000 times

Question: And the “inhibitory activity in cerebral spinal fluid (CSF)” value (kallikrein; 30 μg iv, CSF drawn 30 or 60 min after administration)?
Answer: marked inhibitory activity

Question: And the “inhibitory activity in CSF” value (kallikrein; 30 μg/mouse iv, thirty minutes after treatment)?
Answer: marked inhibitory activity

Question: And the “crossing of the blood-brain barrier” value (kallikrein; intact blood-brain barrier, active form)?
Answer: can cross rapidly the intact blood-brain barrier
